Target: the molecule itself
Test: crystal structure; AtHPPD-HPPA complex, hanging drop vapor diffusion, with CoCl2 and HPPA; reservoir 36% (w/v) PEG 400, 0.1 M NaCl, 0.1 M sodium acetate pH 5.0, 18°C; space group P 21, four molecules per asymmetric unit

B1: Arabidopsis thaliana 4-hydroxyphenylpyruvate dioxygenase (enzyme, UniProt P93836 1-445, looked up)
chain: MGHQNAAVSENQNHDDGAASSPGFKLVGFSKFVRKNPKSDKFKVKRFHHIEFWCGDATNVARRFSWGLGMRFSAKSDLSTGNMVHASYLLTSGDLRFLFTAPYSPSLSAGEIKPTTTASIPSFDHGSCRSFFSSHGLGVRAVAIEVEDAESAFSISVANGAIPSSPPIVLNEAVTIAEVKLYGDVVLRYVSYKAEDTEKSEFLPGFERVEDASSFPLDYGIRRLDHAVGNVPELGPALTYVAGFTGFHQFAEFTADDVGTAESGLNSAVLASNDEMVLLPINEPVHGTKRKSQIQTYLEHNEGAGLQHLALMSEDIFRTLREMRKRSSIGGFDFMPSPPPTYYQNLKKRVGDVLSDDQIKECEELGILVDRDDQGTLLQIFTKPLGDRPTIFIEIIQRVGCMMKDEEGKAYQSGGCGGFGKGNFSELFKSIEEYEKTLEAKQLVG
notes: 4-hydroxyphenylpyruvate dioxygenase, Arabidopsis thaliana, UniProtKB P93836, full-length protein in pET15b; Crystallised with cobalt(II) chloride and the substrate HPPA; also called AtHPPD; HPPD; source: E. coli BL21 (DE3), purified (Ni-NTA, anion exchange, size exclusion chromatography)
  binding result: binds

— article PMC6750108, “Crystal Structure of 4-Hydroxyphenylpyruvate Dioxygenase in Complex with Substrate Reveals a New Starting Point for Herbicide Discovery” (Research, 2019)
